US20160082083A1 (NATIONAL RESEARCH COUNCIL OF CANADA, published 2016)

Molecular target: cathepsin B (human, UniProt P07858 80-333)
Experiment: cell-based or functional assay

Binder	inhibition of secreted cathepsin B activity in U87MG CM, overnight incubation with 20 nM protein [%]	inhibition of intracellular cathepsin B activity (Magic Red) in U87MG cells, overnight incubation with 20 nM protein [%]
IGFBP-6 (from R&D systems) (other) RCPGCGQGVQAGCPGGCVEEEDGGSPAEGCAEAEGCLRREGQECGVYTPNCAPGLQCHPPKDDEAPLRALLLGRGRCLPARAPAVAEENPKESKPQAGTARPQDVNRRDQQRNPGTSTTPSQPNSAGVQDTEMGPCRRHLDSVLQQLQTEVYRGAQTLYVPNCDHRGFYRKRQCRSSQGQRRGPCWCVDRMGKSLPGSPDGNGSSSCPTGSSG	~60	
IGFBP-2 full-length protein (aas 1-328), produced at BRI-NRC (other) MLPRVGCPALPLPPPPLLPLLPLLLLLLGASGGGGGARAEVLFRCPPCTPERLAACGPPPVAPPAAVAAVAGGARMPCAELVREPGCGCCSVCARLEGEACGVYTPRCGQGLRCYPHPGSELPLQALVMGEGTCEKRRDAEYGASPEQVADNGDDHSEGGLVENHVDSTMNMLGGGGSAGRKPLKSGMKELAVFREKVTEQHRQMGKGGKHHLGLEEPKKLRPPPARTPCQQELDQVLERISTMRLPDERGPLEHLYSLHIPNCDKHGLYNLKQCKMSLNGQRGECWCVNPNTGKLIQGAPTIRGDPECHLFYNEQQEARGVHTQRMQGSGWSHPQFEKTGHHHHHHHHGGQ	~60	~50
IGFBP-2 (from R&D systems) (other) MLPRVGCPALPLPPPPLLPLLPLLLLLLGASGGGGGARAEVLFRCPPCTPERLAACGPPPVAPPAAVAAVAGGARMPCAELVREPGCGCCSVCARLEGEACGVYTPRCGQGLRCYPHPGSELPLQALVMGEGTCEKRRDAEYGASPEQVADNGDDHSEGGLVENHVDSTMNMLGGGGSAGRKPLKSGMKELAVFREKVTEQHRQMGKGGKHHLGLEEPKKLRPPPARTPCQQELDQVLERISTMRLPDERGPLEHLYSLHIPNCDKHGLYNLKQCKMSLNGQRGECWCVNPNTGKLIQGAPTIRGDPECHLFYNEQQEARGVHTQRMQ		~50
CIBP6 (aas 151-240) (other) IARNSAGVQDTEMGPCRRHLDSVLQQLQTEVYRGAQTLYVPNCDHRGFYRKRQCRSSQGQRRGPCWCVDRMGKSLPGSPDGNGSSSCPTGSSGSSTGHHHHHHHHG	~60	
IGFBP-5 C-terminal fragment (aas 177-272) (other) IASIISAPEMRQESEQGPCRRHMEASLQELKASPRMVPRAVYLPNCDRKGFYKRKQCKPSRGRKRGICWCVDKYGMKLPGMEYVDGDFQCHTFDSSNVEDPWSHPQFEKTGHHHHHHHHGGQ		~50
IGFBP-2 C-terminal fragment (aas 207-328 of SEQ ID NO: 3) (other) IASKGGKHHLGLEEPKKLRPPPARTPCQQELDQVLERISTMRLPDERGPLEHLYSLHIPNCDKHGLYNLKQCKMSLNGQRGECWCVNPNTGKLIQGAPTIRGDPECHLFYNEQQEARGVHTQRMQDPWSHPQFEKTGHHHHHHHHGGQ	~70	~50
